# Data: article PMC9166294, “Patched 1 regulates Smoothened by controlling sterol binding to its extracellular cysteine-rich domain” (Science Advances, 2022)
# B1: Nb8-mVenus (VHH)
# VHH: QVQLQESGGGLVQAGGSLRLSCAASGYIFSSYAMGWYRQAPGKEREFVATIGWGTITYYADSVKGRFTISRDNAKNTVYLQMNSLKPEDTAVYYCAAQDLLYYSFPGDHAYWGQGTQVTVSS
# notes: Fused at its C terminus to a HRV3C-mVenus-12His fragment (HRV3C protease site between Nb8 and mVenus); the only Nb8 construct described is this one; also called active-conformation specific nanobody Nb8; active-state selective Nb8; not shown: mVenus, C-terminal, kept; 12His, C-terminal, kept
# Experiments:
# [1] = target: T1, PTCH1 (Patched 1) (Mus musculus, UniProt Q61115); test: UV photocrosslinking in intact cells, immunoprecipitation and click-biotin detection; assay type: cell-based
# T1 construct: full-length PTCH1-WT with C-terminal 1D4 tag
# T1 sequence (Q61115 1-1434): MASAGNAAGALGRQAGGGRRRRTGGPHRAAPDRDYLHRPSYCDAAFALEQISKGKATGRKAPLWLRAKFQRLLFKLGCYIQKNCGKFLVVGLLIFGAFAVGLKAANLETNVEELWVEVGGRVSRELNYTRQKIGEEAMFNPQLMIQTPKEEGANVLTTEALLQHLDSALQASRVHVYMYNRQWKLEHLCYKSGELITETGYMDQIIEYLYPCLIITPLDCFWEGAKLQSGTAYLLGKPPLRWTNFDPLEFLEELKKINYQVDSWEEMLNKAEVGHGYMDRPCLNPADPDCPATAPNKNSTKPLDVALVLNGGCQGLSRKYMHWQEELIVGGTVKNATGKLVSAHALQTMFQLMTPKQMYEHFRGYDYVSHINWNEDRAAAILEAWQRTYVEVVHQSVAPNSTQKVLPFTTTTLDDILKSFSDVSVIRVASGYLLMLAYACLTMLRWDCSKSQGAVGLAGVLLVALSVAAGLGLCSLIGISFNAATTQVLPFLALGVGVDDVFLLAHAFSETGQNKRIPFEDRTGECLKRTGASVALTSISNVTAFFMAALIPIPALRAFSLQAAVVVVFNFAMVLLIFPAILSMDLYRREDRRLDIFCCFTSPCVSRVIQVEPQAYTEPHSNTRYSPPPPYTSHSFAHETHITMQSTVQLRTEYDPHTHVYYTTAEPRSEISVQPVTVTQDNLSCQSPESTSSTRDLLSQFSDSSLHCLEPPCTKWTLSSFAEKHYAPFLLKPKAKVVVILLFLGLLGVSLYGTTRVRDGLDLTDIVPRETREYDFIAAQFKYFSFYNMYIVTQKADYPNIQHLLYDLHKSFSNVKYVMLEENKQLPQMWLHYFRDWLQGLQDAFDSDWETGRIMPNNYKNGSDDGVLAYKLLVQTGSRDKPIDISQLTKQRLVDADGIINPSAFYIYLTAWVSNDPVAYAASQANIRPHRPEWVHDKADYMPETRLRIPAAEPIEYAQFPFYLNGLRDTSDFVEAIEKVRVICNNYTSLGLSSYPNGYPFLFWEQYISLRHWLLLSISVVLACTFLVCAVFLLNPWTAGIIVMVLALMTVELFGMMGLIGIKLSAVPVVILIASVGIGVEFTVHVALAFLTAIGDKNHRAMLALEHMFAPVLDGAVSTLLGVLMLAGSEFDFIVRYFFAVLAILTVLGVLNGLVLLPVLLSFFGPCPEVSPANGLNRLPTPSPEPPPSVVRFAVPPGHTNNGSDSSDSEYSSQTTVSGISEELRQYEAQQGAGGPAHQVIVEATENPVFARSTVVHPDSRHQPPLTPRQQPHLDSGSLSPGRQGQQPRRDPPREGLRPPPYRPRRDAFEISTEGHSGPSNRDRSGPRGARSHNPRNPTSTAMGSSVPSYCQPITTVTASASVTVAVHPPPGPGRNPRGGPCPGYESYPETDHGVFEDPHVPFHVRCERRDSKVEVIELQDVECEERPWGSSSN
# Source text: UV photocrosslinking in intact cells, immunoprecipitation and click-biotin detection on PTCH1 (Patched 1) | PTCH1 itself could be photolabeled by 6-azi-20(S)-yne. Labeling of PTCH1 by 6-azi-20(S)-yne was diminished by SHH
# [2] = target: T2, hSMOΔC (Homo sapiens, UniProt Q99835); test: SEC; fluorescence-detection size exclusion chromatography (FSEC); purified hSMOΔC variants and Nb8-mVenus incubated 1 hour in 200 μl, no added ligands; Superose 6 Increase 3.2/300 in 10 mM Hepes pH 7.5, 150 mM NaCl, 0.02% GDN, 0.002% CHS; mVenus fluorescence followed; settings: both partners purified
# T2 construct: Smoothened (SMO), human, UniProt Q99835, amino acid residues 32 to 555, lacks the disordered C-terminal cytoplasmic tail; Purified in detergent (GDN/CHS); Cloned into pHR-CMV-TetO2 (Addgene plasmid no. 113883) with a 3C-protease cleavable mVenus-1D4 tag; called nonfluorescent in the FSEC assay; also called human Smoothened lacking its C-terminal cytoplasmic tail; hSMO∆C; not shown: HA, …
# T2 sequence (Q99835 32-555, stated change not applied): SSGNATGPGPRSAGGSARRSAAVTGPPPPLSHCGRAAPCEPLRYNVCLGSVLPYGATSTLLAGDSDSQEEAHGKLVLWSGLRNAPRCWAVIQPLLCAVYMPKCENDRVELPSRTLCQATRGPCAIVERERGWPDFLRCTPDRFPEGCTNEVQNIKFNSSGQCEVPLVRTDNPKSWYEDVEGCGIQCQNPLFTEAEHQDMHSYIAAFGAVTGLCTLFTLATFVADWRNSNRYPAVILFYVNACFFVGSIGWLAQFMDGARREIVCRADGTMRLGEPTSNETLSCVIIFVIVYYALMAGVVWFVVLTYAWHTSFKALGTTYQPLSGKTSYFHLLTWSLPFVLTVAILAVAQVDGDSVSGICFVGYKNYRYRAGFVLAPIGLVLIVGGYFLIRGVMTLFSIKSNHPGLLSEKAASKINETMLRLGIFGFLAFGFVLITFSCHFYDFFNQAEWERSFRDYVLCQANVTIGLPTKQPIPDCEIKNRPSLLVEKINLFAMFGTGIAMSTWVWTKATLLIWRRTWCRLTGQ
# [3] = target: T3, hSMOΔC-ΔCRD (Homo sapiens, UniProt Q99835); test: as above; settings: both partners purified
# T3 construct: Smoothened (SMO), human, UniProt Q99835, amino acid residues 190 to 555, lacks the cysteine-rich domain and the C-terminal cytoplasmic tail; Purified in detergent (GDN/CHS); also called hSMOΔC lacking the CRD; not shown: mVenus, C-terminal, cleaved; 1D4, C-terminal, cleaved
# T3 sequence (Q99835 190-555, stated change not applied): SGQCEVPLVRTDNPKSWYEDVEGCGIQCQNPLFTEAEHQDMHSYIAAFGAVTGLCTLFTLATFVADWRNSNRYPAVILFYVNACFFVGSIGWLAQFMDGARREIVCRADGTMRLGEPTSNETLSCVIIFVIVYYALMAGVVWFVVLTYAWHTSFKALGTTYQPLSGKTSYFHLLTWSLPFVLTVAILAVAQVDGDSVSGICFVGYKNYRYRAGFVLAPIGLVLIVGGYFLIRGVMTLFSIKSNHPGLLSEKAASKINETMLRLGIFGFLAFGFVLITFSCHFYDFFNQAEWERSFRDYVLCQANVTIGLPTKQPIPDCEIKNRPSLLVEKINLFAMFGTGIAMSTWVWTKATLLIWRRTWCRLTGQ
Molecule,"UV photocrosslinking in intact cells, immunoprecipitation and click-biotin detec [1]",binding result [2],binding result [3]
C#CCC[C@](C)(O)[C@H]1CC[C@H]2[C@@H]3CC4(N=N4)[C@H]4C[C@@H](O)CC[C@]4(C)[C@H]3CC[C@@]21C [6-azi-20(S)-yne],PTCH1 itself could be photolabeled by 6-azi-20(S)-yne. Labeling of PTCH1 by 6-azi-20(S)-yne was diminished by SHH,–,–
B1,–,binds,binds
